In test [1] the target is WMHBV myr-preS1-Al633-peptide. Briefly: Al633 fluorescence of labelled myr-preS1-peptide bound to transfected HEK293 cells. As to conditions: 10 nM peptide, 20 min, 37°C, read off a plot.
The target of test [2] is HBV myr-preS1-Al633-peptide (UniProt P03138). Described as above. As to conditions: 10 nM peptide, 20 min, 37°C, read off a plot.

Data on 14 substances can be found in PMC6005513.

Regarding “Callithrix jacchus (common marmoset) Ntcp, wild type (from UniProt F7HA36) G158R”, the response in test [1] (parent: est. 20000) came to 11000 rfu.
Turning to “Callithrix jacchus (common marmoset) Ntcp, wild type (from UniProt F7HA36) G158S”, the response in test [1] (parent: est. 20000) was 14000 rfu.
In the case of “Chlorocebus aethiops (grivet) Ntcp, wild type (from UniProt A0A0U3VGV8) R158G”, the response in test [1] (parent: est. 11000) came out at 20000 rfu.
Turning to “Macaca fascicularis (crab-eating macaque) Ntcp, wild type R158G”, the response in test [2] (parent: est. 11000) amounted to 25000 rfu; in test [1] (parent: est. 11000) it was 18000 rfu.
As to “Macaca mulatta (rhesus macaque) Ntcp, wild type (from UniProt A0A0U4DKK4) R158G”, the response in test [1] (parent: est. 11000) came to 20000 rfu.
The same measure, in the same setting: with “Saguinus oedipus (cotton-top tamarin) Ntcp, wild type (from UniProt A0A0U4EKU3) S158G” the figure was 15000 rfu.
Take “Saimiri sciureus (common squirrel monkey) Ntcp, wild type G158R”: the response came out at 10000 rfu in test [2] (parent: est. 18000) and 11000 rfu in test [1] (parent: est. 18000).
“Saimiri sciureus (common squirrel monkey) Ntcp, wild type G158S”: the response in test [2] (parent: est. 18000) amounted to 11000 rfu; in test [1] (parent: est. 18000), 10000 rfu.
For “Semnopithecus sp. (langur) Ntcp, wild type R158G”, the response in test [2] (parent: est. 11000) was 28000 rfu; in test [1] (parent: est. 10000), 21000 rfu.
In the case of “human Na+/taurocholate co-transporting polypeptide (NTCP), wild type (from UniProt Q14973) G158D”, the response in test [1] (parent: est. 24000) came to 12000 rfu.
As to “human Na+/taurocholate co-transporting polypeptide (NTCP), wild type (from UniProt Q14973) G158N”, the response in test [1] (parent: est. 24000) is 12000 rfu.
As to “human Na+/taurocholate co-transporting polypeptide (NTCP), wild type (from UniProt Q14973) G158R”, the response in test [1] (parent: est. 24000) is 11000 rfu.
On to “human Na+/taurocholate co-transporting polypeptide (NTCP), wild type (from UniProt Q14973) G158S”, for which the response in test [1] (parent: est. 24000) is 19000 rfu.
As to “human Na+/taurocholate co-transporting polypeptide (NTCP), wild type (from UniProt Q14973) G158V”, in test [1] (parent: est. 24000), the response came to 10000 rfu.
